Source: the nanobody polyreactivity screen of Harvey et al. (2022)

test: yeast display, Sf9 membrane polyspecificity reagent, FACS + sequencing; frameworks hold sequencing errors
In short: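 Galactose induction of a Saccharomyces cerevisiae BJ5465 synthetic nanobody display library ran 36–48 hours. The cells were then stained for 1 hour at 4 °C with 10% biotinylated, detergent-solubilized Sf9 membrane reagent, pulled down on streptavidin microbeads and FACS-sorted into low and high (top ~1%) gates on expression and reagent-binding fluorescence. Labels for polyreactivity follow the gate of origin.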

Row | Sequence | polyreactivity (PSR sort gate)
1 | QVQLVESVGGLVQAAGSLRLSCAASGRIFSPYAMGWYRQAPGKESELVAAISWSGGTTYYADSVKGRFTISRDNAKNTVYLQMNSLKPEDTAVYYCAADLGYQDPLDYYWGQGTQVTVSS | high polyreactivity
2 | QVQLVESVGGLVQAGGILRLSCAASGNTFPAYAMGWYRQAPGKERELVATISWSTGSTNYADSVKGRFTISRDTAKNTVYLQMNSLKPEDTAVYYCAASYWCYEYDYWGLGTQVTVSS | low polyreactivity
3 | QVQLVESVGGLVQAGGRLRLSCAASGRIFSFYAMGWYRPAPGKEREFVAAITYSGGSSYYADSVKGRFTNSRDNAKKTVYLQMNSLKPEDTAVYYCAARYRYITKYDYWGQGTQVTVSS | high polyreactivity
4 | QVQLVESVGGLVQAGGRLRLTCAASGFIFTHYAMVWYRQAPGKERELVAAISWNGGRTYYADSVKGRFTISRDNANITVYLQMNSLKPEDTAVYYCAARIYLSKSFNFWGQGTQVTVSS | high polyreactivity
5 | QVQLVESVGGLVQAGGSHRLSCAASGLTFEWYTMGWYRQAPGKERELVAVITVSGSSTYYADSVKGRFTISRDNAKNTVYLQMNSLKPEDTAVYYCNADWSFYSYTLYDYWGQGTQVTVSS | low polyreactivity
6 | QVQLVESVGGLVQAGGSLPLSSAASGSIFYRYALGWYRQAPGKERELVAAISDRSGSTYYADSVKGRFTISRDNAKNTVYLQMNSLKPEATAVYYCAASYNYRAAGYGLSRYYYWGQGTQVTVSS | high polyreactivity
7 | QVQLVESVGGLVQAGGSLRFSCAASGFIFNYNALGWYRQAPGTERELVAAISGTGVRTYYADSVKGRFTISRDNAKNTVYLQMNSLKPEDTAVYYCNAYYGYIPVSGYRNDYWGQGTQVTVSS | low polyreactivity
8 | QVQLVESVGGLVQAGGSLRLICAASGRTFSRNAMGWYRQAPGKERELVAGISWRGTSTYYADSVKGRFTISRDNAKNTVFLQMNSLKPEDTAVYYCNRVFEYWSEYDYWGQGTQVTVSS | high polyreactivity
9 | QVQLVESVGGLVQAGGSLRLRCAASGSTFYKNAMGRYRQAPGIERELVAGISRRGGRTYYADSVKGRFTISRDNAKNTVYLQMNSLKPEDTAVFYCNTGHEVDEYDYWGQGTQVTVSS | low polyreactivity
10 | QVQLVESVGGLVQAGGSLRLSCAASGFIFKRYAMGWYRQAPGKERELVAAITGSGGSTYYADSVKGRFTISRDNAKNTVYLQMNSLKPEDTAVYYCARGNGGSLDYWGQGTQVTVSS | high polyreactivity
11 | QVQLVESVGGLVQAGGSLRLSCAASGFIFYQNAMGWYRQAPGKERELVAAISTTGSRTYYADSVKGRFTISRDNAKNTVYLQMNSLKPEDTAVYYCNAPRRVNYDYWGQGTQVTVSS | high polyreactivity
12 | QVQLVESVGGLVQAGGSLRLSCAASGFIIVEYDMGWYRQAPGKEREFVAAINFSGGSTYYADSVKGRFTISRDNAKNTVYLQMNSLKPEDNAVYYCAADVVRYYYTYYYWGQGTHVTVSS | low polyreactivity
13 | QVQLVESVGGLVQAGGSLRLSCAASGFTFGPYDMGWYRQAPGKERELVAVIIGGDSTNYADSVKGRFTISRDNAKNTVYLQMNSLKPEDTAVYYCAADYIDRVGWMDYWGQGTQVTVSS | low polyreactivity
14 | QVQLVESVGGLVQAGGSLRLSCAASGFTFHLYAMGWYRPAPGKERELDAAISQSGDSTYYADSVKGRFTISRDNAKNTVYLQMNSLKPEDTAVYYVNADNDGVVWSYPFDFDYWGQGTQVTVSS | low polyreactivity
15 | QVQLVESVGGLVQAGGSLRLSCAASGFTIGYNFMGWYRQAPGKERELVATISWNGARTYYADSVKGRFTISRDNAKNTVYLQMNSLKPEDTAVYYCAARRYYRGEYDYWGQGTQVTVSS | low polyreactivity
16 | QVQLVESVGGLVQAGGSLRLSCAASGFTIYPYAMGWYRQAPGKERELVAAISSSGGNTYYADSVKGRFTISRDNAKNTVYLQMNSLKPEDTAVYYCNARVYRWAIAPDDDSWGQGTQVTVSS | high polyreactivity
17 | QVQLVESVGGLVQAGGSLRLSCAASGGIFGVYAMGWYRQAPGKERELVAAISNSDTSTSYADSVMGRFTISRDIAKNTVYLQMNSVYPEDTAVYYCNADSPSLSGDYWGQGTQVTVSS | low polyreactivity
18 | QVQLVESVGGLVQAGGSLRLSCAASGGIFWVYAMGWYRQAPGKERELVASISWNGGSTNYADSVKGLFTISRDNAKNTVYLQMNSLKPEDTAVYYCAAEYWTSYADYRYDYWGQGTQVTVSS | low polyreactivity
19 | QVQLVESVGGLVQAGGSLRLSCAASGGTFKTNAMGWYIQAPGKERELVAAITGSGTSTYYADSVKGRFTISRDNAKNTVYLQMNSLKPEDTAVYYCAADKLYQPGIGDDYWGQGNQVTVSS | low polyreactivity
20 | QVQLVESVGGLVQAGGSLRLSCAASGGTFSFNAMGWYRQAPGKERELVAAITQTGDRTYYADSVKGRFTISRDNAKNTVYLQMNSLKPEDTAVYYCAADDIYYQGIYRGSEFDYRGQGTQVTVSS | low polyreactivity
21 | QVQLVESVGGLVQAGGSLRLSCAASGIFVDNAMGWYRQAPGTETELVAPITSSTDSTYYADSVKGRFTISRDNAKNTVALQMNSLKPEDTAVYYCAVARPGGFYFLVHYGYGYWGQGTQVTVSS | low polyreactivity
22 | QVQLVESVGGLVQAGGSLRLSCAASGIIFSCYAMGWYRQAPGKERELVAAISSSGGTTFYADSVKGRFTISRDNAKNTVYLQMNSLKPVDTAVYYCAVVGPPYYTWRVWRPAYDYWGQGTQVTVSS | high polyreactivity

Row | Sequence | polyreactivity (PSR sort gate)
23 | QVQLVESVGGLVQAGGSLRLSCAASGITFLQYAMGWYIQAPGKERELVATINSGGSTNYADSVKGRFTISRDNAKNTVYLQMNSLKPEDTAVYYCAADYGSDYTKGDYWGQGTQVTVSS | low polyreactivity
24 | QVQLVESVGGLVQAGGSLRLSCAASGITFNRYAMGWYRQAPGKERELVAAITGGGSRTFYADSVKGRFTISGDNAKNTVDLQMNSLKPEDTAVYYCAKGLSTGRAYRGYDYWGQGTQVTVSS | high polyreactivity
25 | QVQLVESVGGLVQAGGSLRLSCAASGITFRYYAMGWYRQAPGKERELVADINRGSDTNYADSVKGRFTISRDNAKNTVYLQMNSLKPEDTAVYYCAARSFRSRFRLYIVEFGGYDYWGQGTQVTVSS | low polyreactivity
26 | QVQLVESVGGLVQAGGSLRLSCAASGLIFATYAMGWYRQAPGKESELVADITTTGSTYYADSVKGRFTISRDNAKNTDYLQMNSLKPEATAVYYCAAYCRLLSGYDFDYWGKGTQVTVSS | high polyreactivity
27 | QVQLVESVGGLVQAGGSLRLSCAASGLTSGLNAMGWYRQAPGKERELVATIRTNGGSTYYADSVKGRFTISRDNAKNTVYLQMNSLKPEDTAVYYCAADSVLDRPVLYLWPWYLGDYWGQGTQVTVSS | low polyreactivity
28 | QVQLVESVGGLVQAGGSLRLSCAASGNNFDIYDMGWYRQAPGKERELVAAISSGGSTYYADSVKGRFTISRDTAKNTVYFQMNSLKPEDSAVYYCAESRVGYYRYEYWGQGTQVTVSS | low polyreactivity
29 | QVQLVESVGGLVQAGGSLRLSCAASGNTFSYNAMGWYRQAPGKERELVAAIRWSGGSTYYADSVKGRFTISRDNAKNTVYLQMNSLKPEDTAVYYCNARYASTNYGWFSYYWGQGTQVTVSS | high polyreactivity
30 | QVQLVESVGGLVQAGGSLRLSCAASGRIFAVYAMGWYRQAPGKEREFVAAISYSGGITYYADSVKGRFTISRDNAKNTVYLQMNSLKPEDTAVYYCNAYYYFWGQGTQVTVSS | low polyreactivity
31 | QVQLVESVGGLVQAGGSLRLSCAASGRIFHWYAMGWYRQAPGKERELVAAIRWTGGSTYYADSVKGRFTISRDNAKNTVYLQMNSLKPEDTAVYYCAAKGYTGIFYEMDYWGQGTQVTVSS | low polyreactivity
32 | QVQLVESVGGLVQAGGSLRLSCAASGRIFTSYAMGWYRQAPGKERELVAAIRFNGDSTYYADSVKGSFTISRDNAKNTVYLQMNSLKPEDTAVYYCAASRYRGSFRYTEYYWGQGTQVTVSS | high polyreactivity
33 | QVQLVESVGGLVQAGGSLRLSCAASGRIFVNAMGWYRPAPGKESEVVAAINTRGGSTYYADSVKGRFTISRDNAKNTVYLQLNSLKPEDTAVYYCAARFYTSSRYNYWGQGTQGTVSS | high polyreactivity
34 | QVQLVESVGGLVQAGGSLRLSCAASGRIFWKYTMGWYRQAPGKERELVAAIRSAGGSTYYADSVKGRFTISRDNAKNTVYLQMNSLKPEDTAVYYCAAEPSQRYPLSGYYYWGQGTQVTVSS | low polyreactivity
35 | QVQLVESVGGLVQAGGSLRLSCAASGRIFYKNVMGWYRQAPRKERELVAAISTSTGRTYYADSVNGRFTISRDNAKNTVYLQMNSLKPEDTAVYYCNAVRGLTNGVLYRYDYWGQGTQVTVSS | high polyreactivity
36 | QVQLVESVGGLVQAGGSLRLSCAASGRIFYNYVMGWYRQAPGKERELVAAISSDGGRTYYADSVKGRFTISRDNAKNTVYLQMNSLKPEDTAVYYCAAEWPYGGNGPGHTYEYWGQGTQVTVSS | high polyreactivity
37 | QVQLVESVGGLVQAGGSLRLSCAASGRIIRWYAMGWYRQAPGKERELVAAISGSGGSTYYADSVKGRFTISRDNAKNTVYLQMNSLKPEDTAVYYGAAGYYLRRYYYWGQGTQVTVSS | high polyreactivity
38 | QVQLVESVGGLVQAGGSLRLSCAASGRTFGHYAMGWYRQEPGKERELVAAITSRGGSTNYADSVKGRFTISRDNAKNTVYLQMNSLKPEDTAVYYCAADTLIPDYSATFGYWGEGTQVTVSS | high polyreactivity
39 | QVQLVESVGGLVQAGGSLRLSCAASGRTFRAYAMGWYRQEPGKERELVAAIRWGGGRTYYADSVKGRFTISRDNAKYTVYLQMNSLKPEDTAVYYCAADRTYDYDYWGQGTLVTVSS | high polyreactivity
40 | QVQLVESVGGLVQAGGSLRLSCAASGRTFWWYTMGWYRQAPGKERELVAVISSTGGRTYYADSVKGSFTISRDNAKNTVYLQMNSLKPEDTAVYYCAAEYVSAKWEYGYWGQGTQVTVSS | low polyreactivity
41 | QVQLVESVGGLVQAGGSLRLSCAASGSIFADYAMGWYRQAPGKERELVAAMTGSGGRTYYADSVKGRFTISRDNAKNTVYLHMNSLKPEDTAVYYCAAYQVGWDPYPRYDYWGQGTQVTVSS | low polyreactivity
42 | QVQLVESVGGLVQAGGSLRLSCAASGSIFDYNGMGRYRQAPGKERELVATITLSTARTYYADSVKGRFTISRDNAKNTVYLQMNSLKPEDTAVYYCATRYPKFRRRNYWGQGTQVTVSS | high polyreactivity
43 | QVQLVESVGGLVQAGGSLRLSCAASGSIFFTYTMGWYRQAPGKERELVAAISSGGITNYADSVKGRFTISRDNAKKTVYFQMNSLKPEDTAVYYCAVDGGEFSSYGYWGQGTQVTVSS | low polyreactivity
